Test results: patent US20180335433A1, “COMPOSITIONS TARGETING PKC-THETA AND USES AND METHODS OF TREATING PKC-THETA PATHOLOGIES, ADVERSE IMMUNE RESPONSES AND DISEASES” (La Jolla Institute for Allergy and Immunology, priority 2011, published 2018)

Target: CD28, endogenous in primary mouse CD4+ T cells (mouse) (UniProt P31041)
Experiment: cell-based or functional assay

Sequence of CD28, endogenous in primary mouse CD4+ T cells (mouse) (P31041 20-218): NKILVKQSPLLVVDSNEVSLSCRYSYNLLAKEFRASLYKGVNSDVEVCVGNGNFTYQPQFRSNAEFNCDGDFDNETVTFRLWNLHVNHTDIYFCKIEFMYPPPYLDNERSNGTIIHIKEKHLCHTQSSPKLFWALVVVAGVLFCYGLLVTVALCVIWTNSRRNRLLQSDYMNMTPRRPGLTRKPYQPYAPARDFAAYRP

In the case of “Myc-tagged PKCθ V3 domain (aa 282-379 of human PKCθ, N-terminal Myc tag) (from UniProt Q04759 282-379)”, the Treg (FoxP3+) differentiation is reported as 4 fold, the inhibition of Th2 differentiation is reported as 75% and the inhibition of Th17 differentiation is reported as 75%.
